Results: article PMC9692976, “Characterization of a Glycolipid Synthase Producing α-Galactosylceramide in Bacteroides fragilis” (International Journal of Molecular Sciences, 2022)

Experiments:
[1] = biological target: T1, αGalCer_GT (BF9343_3149; αCerGal_GT) (Bacteroides fragilis, UniProt A0A380YRQ3); experiment: HPLC with fluorescence detection of αGalCer-NBD, initial rates; format: biochemical; settings: substrate inhibition constant; second site; 1.25 mM UDP-Gal, Cer-NBD solubilized with equimolar BSA, pH 7.5, 37 °C; labelled compound
T1 construct: full length, SUMO fusion at N-terminus and Strep-tag (C-terminal in Results; Methods also says N-terminal Strep-tag), tags kept, codon-optimised gene, E. coli BL21(DE3) Star, StrepTrap purified
T1 sequence (A0A380YRQ3 entry or part of it): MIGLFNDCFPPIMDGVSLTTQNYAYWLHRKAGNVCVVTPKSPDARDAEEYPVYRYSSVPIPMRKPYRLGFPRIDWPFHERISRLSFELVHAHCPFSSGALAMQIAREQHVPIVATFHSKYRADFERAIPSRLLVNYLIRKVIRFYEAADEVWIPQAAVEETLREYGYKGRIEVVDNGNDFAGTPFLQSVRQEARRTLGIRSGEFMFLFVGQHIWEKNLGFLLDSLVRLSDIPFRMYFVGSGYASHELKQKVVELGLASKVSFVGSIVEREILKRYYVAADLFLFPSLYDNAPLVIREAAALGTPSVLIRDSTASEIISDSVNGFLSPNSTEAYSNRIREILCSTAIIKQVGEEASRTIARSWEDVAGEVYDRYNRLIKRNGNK

[2] = test system: CCCCCCCCCCCCC/C=C/[C@@H](O)[C@H](CO)NC(=O)CCCCCNc1ccc([N+](=O)[O-])c2nonc12; experiment: purified protein; settings: 1.25 mM UDP-Gal, Cer-NBD solubilized with equimolar BSA, pH 7.5, 37 °C, fit with substrate inhibition, labelled compound
[3] = test system: O=c1ccn([C@@H]2O[C@H](COP(=O)(O)OP(=O)(O)O[C@H]3O[C@H](CO)[C@H](O)[C@H](O)[C@H]3O)[C@@H](O)[C@H]2O)c(=O)[nH]1; experiment: purified protein; settings: 25 µM Cer-NBD with equimolar BSA, pH 7.5, 37 °C, fit with substrate inhibition

Molecule: CCCCCCCCCCCCC/C=C/[C@@H](O)[C@H](CO)NC(=O)CCCCCNc1ccc([N+](=O)[O-])c2nonc12 [Cer-NBD, N-[6-[(7-nitro-2-1,3-benzoxadiazol-4-yl)amino]hexanoyl]-D-erythro-sphin-gosine]
- KI [1]: 161 µM

Molecule: αGalCer_GT (BF9343_3149; αCerGal_GT) (Bacteroides fragilis NCTC 9343)
- Km [2]: 4.6 µM
- Km [3]: 218 µM
